We go through 3 molecules from paper PMC11833081, “Biochemical analyses of cystatin-C dimers and cathepsin-B reveals a trypsin-driven feedback mechanism in acute pancreatitis” (Nature Communications, 2025).

Data set [1] addresses trypsin-cleaved (truncated) recombinant murine cystatin C (mouse) (UniProt P21460). Description: SEC; pH 4.0: 100 mM sodium acetate, 150 mM sodium chloride; 3 mg/mL protein kept at 4 °C overnight in the buffer; monomer to dimer ratio.
For data set [2] the target is unchanged. Description: SEC; pH 5.0 and 5.5 (100 mM sodium acetate, 150 mM NaCl) and pH 5.5, 6.0, 7.0, 8.0 (100 mM sodium phosphate, 150 mM NaCl); 3 mg/mL protein kept at 4 °C overnight in the buffer; monomer to dimer ratio. (In general: SEC sorts molecules by how far they enter the pores of the column.)
The target of data set [3] is recombinant murine cathepsin B, wild type, auto-activated (mouse).
Data set [4] concerns the molecule itself. Description: SEC; Superdex 75 Increase 10/300 GL; running buffer 100 mM sodium acetate, 5 mM calcium chloride, 100 mM NaCl, pH 5.5; separation of monomer and dimer fractions.

“trypsin-cleaved (truncated) recombinant murine cystatin C (from UniProt P21460 29-140) (domain or fragment)”: the percent present as dimer was determined as 100% in data set [1] and 70% in data set [2].

B1: murine cystatin C dimer (dimer fraction isolated by size exclusion chromatography) (complex)
chain: ATPKQGPRMLGAPEEADANEEGVRRALDFAVSEYNKGSNDAYHSRAIQVVRARKQLVAGVNYFLDVEMGRTTCTKSQTNLTDCPFHDQPHLMRKALCSFQIYSVPWKGTHSLTKFSCKNA
Regarding B1, in data set [3], the CTSB activity at pH 5.5 (Arg-Arg-AMC) with the CST3 dimer fraction amounted to 3 fold.

B2: recombinant murine cystatin C (CST3), full-length (not trypsin-treated) (natural protein, mouse, UniProt P21460 21-140, looked up)
chain: B1 chain
notes: cystatin C, mouse, synthetic gene ordered without the signal peptide; The preparation is a mixture of monomer and dimer; the monomer fraction isolated by SEC is called mCST3; also called mCST3 (monomer fraction); CST3 monomers; source: E. coli SHuffle T7 Express, purified (Ni-IDA; monomer fraction by SEC); not shown: His-tag, N-terminal, kept; TEV protease cleavage site, N-terminal, kept
As a reminder, the stoichiometry N is the number of molecules, sites or subunits per partner or assembly. As for B2, the “stoichiometry N” value in data set [4] is 2.
